Measurements taken from the domain aggregation screens of Martell et al. (2025).

test: soluble fraction after stress (log2 fold change); higher = more stays soluble; pooled small domains, quantitative proteomics; settings: stress: 75 degC
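Also: 20 min heating vs room temperature control held 20 min.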

Going from “HMTMKVTADILNMRSEASTNSDIVTKLKKDDELKVIEETKDDDGVTWVKVDFNGQVGFVSKEFLG” to “HMTMLLEYNVSRSSKWMNKTIMDAEIPDDILIVMIKRNGQVIVPKGSTEILENDILVLSGNNLNEVALG”, the “soluble fraction (log2)” value falls from 0.237 to -3.02.

Compared with “HMTMNYYDILSIKRDATLEEIQKAYKEKSFQFHPDFNKGISDDSMFRIIKEAYETLSDTEKRNQYDASLNK”, “HMTMQTAEQESRLEQKLIDLSVGIDRFEGYSRPHGQLIASIADRIGTRLGMAAHDRFYMQQAAL” is lower in “soluble fraction (log2)” value: 0.45 for the first, 0.203 for the second.

Compared with “HMTNADRFIGEEAMVIKKIDDINNDGQVKIAGQVWSAVSEDKSPLEEGTIVKVIAIRGVKLVVEPVS”, “HMTNALDMMKTMDSDAYTKYQKISKESSNEDRQLNELKYITNWYAGAVKKNPSMVDDYEKQKEADS” is higher in “soluble fraction (log2)” value: -0.369 for the first, 0.302 for the second.

Compared with “HMTNELTEIFNSIRLTKKQKELLQSNYLSLRETYFLQGKTAFNLKFKNIAGLGKSTKKVLLEFFEESIE”, “HMTNIDIEKSIKNTITANYDDVLNYHNEDDNKTFASGDSRYSFDYDEKTKTLIVFTNSKVDAVFVDGIKKK” is higher in “soluble fraction (log2)” value: -3.15 for the first, 0.308 for the second.

“HMTNISDYILEEYYKNVYPNDLNTKRIVIPNKYEEYAGKYTYITIARMVTYEHDAKKALKVLHQQAT” and “HMTNKYSSLVIGTVKTIMEEDQYKNLMGPPLKKEIIKQVDKFTNALPIEFDQNDKDFYVKKILINL” are within 0.2 log units of each other in “soluble fraction (log2)” value: -0.307 for the first, -0.377 for the second.

Going from “HMTNLKALRESKGVSQQTVADYLGITRQAYGNYETGKRQADYAALLRLAAFFGVSVDALLQP” to “HMTNNDIIRRVRYLFNFSDKQVIELFKLANETVSIEHVSGWLKKEEDPTLIEISDRDLAVFLNGLII”, the “soluble fraction (log2)” value rises from -1.18 to 0.557.

Going from “HMTNQEFNEVFKLLLAAYPNTKDKESVATIYFLTIANELTKKEFAEAVVKILKTRKSGFIPQPAEILEVAK” to “HMTNSAGIERFLASGAIDGVGPAMARRIVEHFGTEALRIIESVPHRLREISGIGPKTAEKIASSYMRQ”, the “soluble fraction (log2)” value rises from -2.54 to -1.15.

First: HMTNTDALINRAAKVVEEINPDKNTGRVSIDGDLWRAKSSSGELIEQNKQVIVISIESTIVTVKI
Second: HMTNTWNNIVERNDLFFKKFTNTPFNGKIETYWPNGNLKETGIITDGKKDNLWEYYYENGNPKEVEF
The “soluble fraction (log2)” value of the first is higher: -0.228 for the first, -0.876 for the second.

Compared with “HMTNVFSIIGKKALVIKDIDPIHSSGQIKLNGEVWSAETENDEIIKEGSEVEVLKINGVKAIVKLV”, “HMTNVIPKAMAPFNGSTIIADGIKNIKDHIDNLYITVGYKGATLSEHVINKGVSAVFNTTGKGNAWWVYN” is higher in “soluble fraction (log2)” value: -0.664 for the first, 0.343 for the second.

Compared with “HMTNVLSEQESKLLERMNKAGLNAEITVKKAAQILNLSESAARNVLNRLVGKGYLTVDTSRLPFLFQR”, “HMTNVVSKNKAKEIAMNIINDTVLQGQTAATFKEIVKANGVYVVKIEIQGQEYTSYITKDGKIVFPYGVEV” is lower in “soluble fraction (log2)” value: -0.277 for the first, -1.07 for the second.

Going from “HMTNYSFIVNENFNNKRIDQVVANHYPKISRTKVNKIIKNNLLKLNGSTFNDPSAKVKLGDQIEFENL” to “HMTPAKQVSAKAERWIDQLGSSDWEKREEAAAELKKLGGAAKSALEKALKNADPEVASKAEELLEALES”, the “soluble fraction (log2)” value falls from 0.434 to 0.19.

First: HMTPATVVIPKVAGQTVAEAKETLKNANFEIGEEKDESSDTVEEGRVIRTDPESGTNRKEGTKINLIVSS
Second: HMTPFVINVDRHGAVIINEKTVDIDEAVVLARQERSQGKSILLAGDKKAPYEAIIRVLDALKQAG
The “soluble fraction (log2)” value of the first is higher: 0.0198 for the first, -0.758 for the second.

Going from “HMTPNATWQDDAQNLLRDLIQHQPVLVQISAAKRLRDQAEQISRITGGETVTREHVEAAGHALGMGVT” to “HMTPNRDDEHLQSLRDYYASNRRIPSLQRIAALLGFSSRSAAVKLMGRLADEGFVERTVDDDAWIPGSRFF”, the “soluble fraction (log2)” value falls from 0.209 to -1.14.

Going from “HMTPQDYEYLRKLLKDQSGLDLSVDKQYLLESRLVPLSRKAGLAGIPELVQKMKAGSASLTAQVVEAMTT” to “HMTPVFGEEETVLQAAVRGIISDTDQWTMEAEAKSMLNQLGFSDYEEKMAHMSGGQKKRVALVNALLTP”, the “soluble fraction (log2)” value rises from -0.11 to 0.116.

Compared with “HMTQDFEPGGQVFSRGEWLTIIRVNKSNGAVSSVTTPNYSFLGYSGTMKVTPDRITDYKAPSAEEAAVAS”, “HMTQGRVTGDGVNVRSQPNTDSAILTRVSTGKVVELISLKDNWYNVVVNGTKGYIRADYVSPYDG” is lower in “soluble fraction (log2)” value: -0.451 for the first, -0.904 for the second.

First: HMTQLPEVPVERGMVLEEVQSGWVGAVTRVEKSGGMHVVALEDRRGKSRSFRLGFGFLLEGQPIRLMPPAP
Second: HMTRAETPMAFIRAMVEAYTERGLDPNQALRKAQITPSQLKSTNARVTTLQMEWMSETAMREL
The “soluble fraction (log2)” value of the first is lower: -1.89 for the first, -0.292 for the second.

First: HMTRDAQLAALERLMDDPSPVVRKAVLKGVQAAGTEGLLWLQQLSKNQTLGPYALALLTELR
Second: HMTRNGTVTFFNHDKGYGFIKDVLTQESVFVHINSLSEPINEQNKVSFEIEMGPRGSNAINVKLI
The “soluble fraction (log2)” value of the first is higher: -0.72 for the first, -1.65 for the second.

Compared with “HMTRTEYMAQLEKYLKKLPHKEFQEAITFFNEYFDEAGPEKETAIMEELGSPKEAASELITNILNRHI”, “HMTRTISKVAKELAINIETVRFYERRGLIEQPPKPELGYRHYPDETVNRIRFIKRAQELGFTLEEIANLLS” is lower in “soluble fraction (log2)” value: -0.433 for the first, -1.66 for the second.

First: HMTRVDALDQLAAIRFSSHIFAEDQDLRMVVVDGQRIGEGDIVRDEIRLEQITETGVIFEYQGERFPIDV
Second: HMTRYQHLAMLLEKRIAQGLYRNGERLPSVRSLSAEHGVSISTVQQAYYLLEQKQLIIPQSRSGYYVAPH
The “soluble fraction (log2)” value of the first is higher: -1.45 for the first, -4.46 for the second.

With “HMTSEVPVGSNVRIRASTLAGERDFEGTMLPPAGEGLTTLKLVNGYNLSYPSKDVLDIEFLGGAGE” the “soluble fraction (log2)” value was 0.14.
